Target: T1, antithrombin (purified from human plasma) (human, UniProt P01008 33-464)
T1 construct: mature
Assay: SDS-PAGE with Coomassie blue after incubation with antithrombin and heparin
Experimental: The incubation is sustained for one hour at 25° C., and the reaction mixture is analysed by polyacrylamide gel electrophoresis (10%, crosslinking 29/1), after denaturation and reduction of the sample. After staining with Coomassie blue, the presence of covalent complexes between the (inactivated) form of the factor X derivative and the antithrombin results in a decrease in the intensity of the band corresponding to antithrombin (60 kDa), a decrease in the intensity of the band corresponding to the activated form of the factor X derivative (31 kDa), and the appearance of a new band of higher molecular weight (approximately 100 kDa) corresponding to the covalent complex.

T1 sequence (P01008 33-464): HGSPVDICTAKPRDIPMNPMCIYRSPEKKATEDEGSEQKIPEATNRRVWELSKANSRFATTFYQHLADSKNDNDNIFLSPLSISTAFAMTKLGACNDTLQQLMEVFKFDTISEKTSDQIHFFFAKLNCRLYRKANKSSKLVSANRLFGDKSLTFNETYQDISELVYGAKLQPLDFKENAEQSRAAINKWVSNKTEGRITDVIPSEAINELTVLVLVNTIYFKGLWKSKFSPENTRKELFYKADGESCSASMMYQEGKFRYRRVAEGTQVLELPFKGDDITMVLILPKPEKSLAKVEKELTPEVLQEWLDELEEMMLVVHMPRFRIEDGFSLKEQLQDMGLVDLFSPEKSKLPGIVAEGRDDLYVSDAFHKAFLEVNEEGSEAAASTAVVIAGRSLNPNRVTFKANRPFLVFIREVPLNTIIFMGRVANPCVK

- binding result: no binding
B1: activated form of the GDX-SFR derivative (enzyme, human)
light: EDQVDPRLIDGKDGDQCETSPCQNQGKCKDGLGEYTCTCLEGFEGKNCELFTRKLCSLDNGDCDQFCHEEQNSVVCSCARGYTLADNGKACIPTGPYPCGKQTLER
heavy: SFRGQECKDGECPWQALLINEENEGFCGGTILSEFYILTAAHCLYQAKRFKVRVGDRNTEQEEGGEAVHEVEVVIKHNRFTKETYDFDIAVLRLKTPITFRMNVAPACLPERDWAESTLMTQKTGIVSGFGRTHEKGRQSTRLKMLEVPYVDRNSCKLSSSFIITQNMFCAGYDTKQEDACQGDSGGPHVTRFKDTYFVTGIVSWGEGCARKGKYGIYTKVTAFLKWIDRSMKTRGLPKAKSHAPEVITSSPLKEQKLISEEDLN
notes: domain: two EGF domains;domain: catalytic domain
